{"source": "the Human Domainome abundance scans (Beltran et al. 2025)", "parents": {"B1": {"name": "Ras GTPase-activating protein 1, residues 281 to 341; numbered along this chain, P20936 (parent)", "chain": "RRRVRAILPYTKVPDTDEISFLKGDMFIVHNELEDGWMWVTNLRTDEQGLIVEDLVEEVGR"}}, "note": "± gives the uncertainty stated by the source.", "data": [{"variants_of": "B1", "assay": "abundance fitness (aPCA) (normalised: wild type 0, dead -1); higher = more abundant; growth selection in yeast, the domain comes from the species named", "settings": "Homo sapiens", "values": [{"variant": "RRRVRAILPYTKVPDTDEISFLKGDMFIVHNELEDGTMWVTNLRTDEQGLIVEDLVEEVGR", "note": "[W37T]", "abundance fitness": "0.037 ± 0.024"}, {"variant": "RRRVRAILPYTKVPDTDEISFLKGDMFIVHNELEDGYMWVTNLRTDEQGLIVEDLVEEVGR", "note": "[W37Y]", "abundance fitness": "0.024 ± 0.021"}, {"variant": "RRRVRAILPYTKVPDTDEISFLKGDMFIVHNELEDGCMWVTNLRTDEQGLIVEDLVEEVGR", "note": "[W37C]", "abundance fitness": "-0.016 ± 0.021"}, {"variant": "RRRVRAILPYTKVPDTDEISFLKGDMFIVHNELEDGFMWVTNLRTDEQGLIVEDLVEEVGR", "note": "[W37F]", "abundance fitness": "-0.004 ± 0.021"}, {"variant": "RRRVRAILPYTKVPDTDEISFLKGDMFIVHNELEDGLMWVTNLRTDEQGLIVEDLVEEVGR", "note": "[W37L]", "abundance fitness": "-0.003 ± 0.022"}, {"variant": "RRRVRAILPYTKVPDTDEISFLKGDMFIVHNELEDGHMWVTNLRTDEQGLIVEDLVEEVGR", "note": "[W37H]", "abundance fitness": "0.044 ± 0.022"}, {"variant": "RRRVRAILPYTKVPDTDEISFLKGDMFIVHNELEDGAMWVTNLRTDEQGLIVEDLVEEVGR", "note": "[W37A]", "abundance fitness": "-0.014 ± 0.021"}, {"variant": "RRRVRAILPYTKVPDTDEISFLKGDMFIVHNELEDGRMWVTNLRTDEQGLIVEDLVEEVGR", "note": "[W37R]", "abundance fitness": "0.088 ± 0.021"}, {"variant": "RRRVRAILPYTKVPDTDEISFLKGDMFIVHNELEDGEMWVTNLRTDEQGLIVEDLVEEVGR", "note": "[W37E]", "abundance fitness": "-0.176 ± 0.036"}, {"variant": "RRRVRAILPYTKVPDTDEISFLKGDMFIVHNELEDGQMWVTNLRTDEQGLIVEDLVEEVGR", "note": "[W37Q]", "abundance fitness": "0.073 ± 0.042"}, {"variant": "RRRVRAILPYTKVPDTDEISFLKGDMFIVHNELEDGGMWVTNLRTDEQGLIVEDLVEEVGR", "note": "[W37G]", "abundance fitness": "-0.049 ± 0.02"}, {"variant": "RRRVRAILPYTKVPDTDEISFLKGDMFIVHNELEDGMMWVTNLRTDEQGLIVEDLVEEVGR", "note": "[W37M]", "abundance fitness": "0.006 ± 0.037"}, {"variant": "RRRVRAILPYTKVPDTDEISFLKGDMFIVHNELEDGSMWVTNLRTDEQGLIVEDLVEEVGR", "note": "[W37S]", "abundance fitness": "0.004 ± 0.02"}, {"variant": "RRRVRAILPYTKVPDTDEISFLKGDMFIVHNELEDGKMWVTNLRTDEQGLIVEDLVEEVGR", "note": "[W37K]", "abundance fitness": "0.121 ± 0.037"}, {"variant": "RRRVRAILPYTKVPDTDEISFLKGDMFIVHNELEDGPMWVTNLRTDEQGLIVEDLVEEVGR", "note": "[W37P]", "abundance fitness": "-0.795 ± 0.037"}, {"variant": "RRRVRAILPYTKVPDTDEISFLKGDMFIVHNELEDGIMWVTNLRTDEQGLIVEDLVEEVGR", "note": "[W37I]", "abundance fitness": "-0.104 ± 0.022"}, {"variant": "RRRVRAILPYTKVPDTDEISFLKGDMFIVHNELEDGWWWVTNLRTDEQGLIVEDLVEEVGR", "note": "[M38W]", "abundance fitness": "-0.438 ± 0.065"}, {"variant": "RRRVRAILPYTKVPDTDEISFLKGDMFIVHNELEDGWFWVTNLRTDEQGLIVEDLVEEVGR", "note": "[M38F]", "abundance fitness": "-0.18 ± 0.031"}, {"variant": "RRRVRAILPYTKVPDTDEISFLKGDMFIVHNELEDGWVWVTNLRTDEQGLIVEDLVEEVGR", "note": "[M38V]", "abundance fitness": "-0.305 ± 0.028"}, {"variant": "RRRVRAILPYTKVPDTDEISFLKGDMFIVHNELEDGWSWVTNLRTDEQGLIVEDLVEEVGR", "note": "[M38S]", "abundance fitness": "-0.451 ± 0.029"}, {"variant": "RRRVRAILPYTKVPDTDEISFLKGDMFIVHNELEDGWPWVTNLRTDEQGLIVEDLVEEVGR", "note": "[M38P]", "abundance fitness": "-0.867 ± 0.098"}, {"variant": "RRRVRAILPYTKVPDTDEISFLKGDMFIVHNELEDGWQWVTNLRTDEQGLIVEDLVEEVGR", "note": "[M38Q]", "abundance fitness": "-0.548 ± 0.17"}, {"variant": "RRRVRAILPYTKVPDTDEISFLKGDMFIVHNELEDGWNWVTNLRTDEQGLIVEDLVEEVGR", "note": "[M38N]", "abundance fitness": "-0.623 ± 0.042"}, {"variant": "RRRVRAILPYTKVPDTDEISFLKGDMFIVHNELEDGWCWVTNLRTDEQGLIVEDLVEEVGR", "note": "[M38C]", "abundance fitness": "-0.228 ± 0.028"}, {"variant": "RRRVRAILPYTKVPDTDEISFLKGDMFIVHNELEDGWRWVTNLRTDEQGLIVEDLVEEVGR", "note": "[M38R]", "abundance fitness": "-0.505 ± 0.038"}, {"variant": "RRRVRAILPYTKVPDTDEISFLKGDMFIVHNELEDGWHWVTNLRTDEQGLIVEDLVEEVGR", "note": "[M38H]", "abundance fitness": "-0.865 ± 0.061"}, {"variant": "RRRVRAILPYTKVPDTDEISFLKGDMFIVHNELEDGWAWVTNLRTDEQGLIVEDLVEEVGR", "note": "[M38A]", "abundance fitness": "-0.396 ± 0.036"}, {"variant": "RRRVRAILPYTKVPDTDEISFLKGDMFIVHNELEDGWGWVTNLRTDEQGLIVEDLVEEVGR", "note": "[M38G]", "abundance fitness": "-0.78 ± 0.044"}, {"variant": "RRRVRAILPYTKVPDTDEISFLKGDMFIVHNELEDGWLWVTNLRTDEQGLIVEDLVEEVGR", "note": "[M38L]", "abundance fitness": "-0.013 ± 0.031"}, {"variant": "RRRVRAILPYTKVPDTDEISFLKGDMFIVHNELEDGWEWVTNLRTDEQGLIVEDLVEEVGR", "note": "[M38E]", "abundance fitness": "-1.24 ± 0.24"}, {"variant": "RRRVRAILPYTKVPDTDEISFLKGDMFIVHNELEDGWKWVTNLRTDEQGLIVEDLVEEVGR", "note": "[M38K]", "abundance fitness": "-0.414 ± 0.075"}, {"variant": "RRRVRAILPYTKVPDTDEISFLKGDMFIVHNELEDGWDWVTNLRTDEQGLIVEDLVEEVGR", "note": "[M38D]", "abundance fitness": "-0.871 ± 0.055"}, {"variant": "RRRVRAILPYTKVPDTDEISFLKGDMFIVHNELEEGWMWVTNLRTDEQGLIVEDLVEEVGR", "note": "[D35E]", "abundance fitness": "-0.047 ± 0.062"}, {"variant": "RRRVRAILPYTKVPDTDEISFLKGDMFIVHNELEKGWMWVTNLRTDEQGLIVEDLVEEVGR", "note": "[D35K]", "abundance fitness": "-0.036 ± 0.062"}, {"variant": "RRRVRAILPYTKVPDTDEISFLKGDMFIVHNELEGGWMWVTNLRTDEQGLIVEDLVEEVGR", "note": "[D35G]", "abundance fitness": "0.015 ± 0.03"}, {"variant": "RRRVRAILPYTKVPDTDEISFLKGDMFIVHNELETGWMWVTNLRTDEQGLIVEDLVEEVGR", "note": "[D35T]", "abundance fitness": "-0.098 ± 0.034"}, {"variant": "RRRVRAILPYTKVPDTDEISFLKGDMFIVHNELEYGWMWVTNLRTDEQGLIVEDLVEEVGR", "note": "[D35Y]", "abundance fitness": "-0.268 ± 0.029"}, {"variant": "RRRVRAILPYTKVPDTDEISFLKGDMFIVHNELEAGWMWVTNLRTDEQGLIVEDLVEEVGR", "note": "[D35A]", "abundance fitness": "-0.024 ± 0.039"}, {"variant": "RRRVRAILPYTKVPDTDEISFLKGDMFIVHNELERGWMWVTNLRTDEQGLIVEDLVEEVGR", "note": "[D35R]", "abundance fitness": "-0.035 ± 0.03"}, {"variant": "RRRVRAILPYTKVPDTDEISFLKGDMFIVHNELEVGWMWVTNLRTDEQGLIVEDLVEEVGR", "note": "[D35V]", "abundance fitness": "-0.392 ± 0.036"}, {"variant": "RRRVRAILPYTKVPDTDEISFLKGDMFIVHNELENGWMWVTNLRTDEQGLIVEDLVEEVGR", "note": "[D35N]", "abundance fitness": "-0.025 ± 0.03"}, {"variant": "RRRVRAILPYTKVPDTDEISFLKGDMFIVHNELESGWMWVTNLRTDEQGLIVEDLVEEVGR", "note": "[D35S]", "abundance fitness": "-0.103 ± 0.026"}, {"variant": "RRRVRAILPYTKVPDTDEISFLKGDMFIVHNELEMGWMWVTNLRTDEQGLIVEDLVEEVGR", "note": "[D35M]", "abundance fitness": "-0.142 ± 0.069"}]}]}
